Measurements reported in paper PMC10873206 (Nature Structural & Molecular Biology, 2024).

What was measured:
[1] = target: T1, His-ubiquitin(1–75)–BmDPA (human, UniProt P0CG48 1-75, C terminus (residue 75) conjugated to (E)-3-[2-(bromomethyl)-1,3-dioxolan-2-yl]prop-2-en-1-amine (BmDPA), cross-linked to Cys48 of the acceptor ubiquitin and to the UBE2R2 active site cysteine); experiment: cryo-EM structure; trapped chain formation complex: neddylated CUL2–RBX1, Elongin B/C–VHL, PROTAC MZ1, K48C ubiquitin–BRD4 (352–460), donor ubiquitin(1–75), UBE2R2; SEC-purified; 7.5 Å map, rigid-body fits; details: both partners purified
T1 construct: ubiquitin, human, residues 1–75; also called UBD; donor ubiquitin

neddylated CUL1–RBX1 = target: T2, neddylated CUL1–RBX1 (human, UniProt Q13616 1-776; P62877 5-108; Q15843 1-76, NEDD8 covalently linked to a conserved cullin lysine (WHB domain) | C terminus covalently linked to the cullin lysine); experiment: cryo-EM structure; trapped chain formation complex: neddylated CUL1–RBX1, SKP1–FBXW7, K48C ubiquitin–cyclin E phosphopeptide, donor ubiquitin(1–75), UBE2R2; SEC-purified; 8.1 Å map, rigid-body fits; details: both partners purified
T2 construct: CUL1, human, wild type; RBX1, human, residues 5 to C terminus; NEDD8, human; purified as previously described; also called NEDD8–CUL1–RBX1; neddylated CRL1 core; source: High Five insect cells (baculovirus), co-expressed, purified (GST-sepharose, TEV cleavage, ion exchange, SEC); neddylated as previously described; not shown: GST, N-terminal, cleaved; copies: + +
T2 sequence (Q13616 whole entry, chain 1 of 3, the tested form may be a part): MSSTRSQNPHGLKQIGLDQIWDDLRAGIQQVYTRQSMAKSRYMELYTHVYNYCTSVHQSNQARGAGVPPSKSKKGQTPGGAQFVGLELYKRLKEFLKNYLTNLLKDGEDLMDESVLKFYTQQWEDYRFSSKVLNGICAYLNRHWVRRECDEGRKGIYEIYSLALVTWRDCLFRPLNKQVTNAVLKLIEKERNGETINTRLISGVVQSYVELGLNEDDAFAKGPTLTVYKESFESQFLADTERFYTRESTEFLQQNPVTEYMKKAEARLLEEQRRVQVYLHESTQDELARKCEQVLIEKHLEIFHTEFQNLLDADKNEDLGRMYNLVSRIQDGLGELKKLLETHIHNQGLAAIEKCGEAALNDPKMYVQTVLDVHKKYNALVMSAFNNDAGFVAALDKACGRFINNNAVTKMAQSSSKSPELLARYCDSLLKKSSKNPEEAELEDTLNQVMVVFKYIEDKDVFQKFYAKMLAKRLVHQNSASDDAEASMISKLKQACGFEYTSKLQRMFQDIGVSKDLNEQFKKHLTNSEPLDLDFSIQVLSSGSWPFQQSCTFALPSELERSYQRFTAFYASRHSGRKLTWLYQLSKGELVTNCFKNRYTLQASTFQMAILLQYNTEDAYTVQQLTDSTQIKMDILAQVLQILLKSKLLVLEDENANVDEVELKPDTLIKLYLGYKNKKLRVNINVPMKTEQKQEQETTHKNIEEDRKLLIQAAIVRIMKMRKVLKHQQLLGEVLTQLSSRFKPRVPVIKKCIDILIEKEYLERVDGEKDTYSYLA
T2 sequence (P62877 5-108, chain 2 of 3): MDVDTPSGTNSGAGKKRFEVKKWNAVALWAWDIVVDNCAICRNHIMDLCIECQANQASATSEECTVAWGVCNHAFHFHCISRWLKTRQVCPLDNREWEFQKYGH
T2 sequence (Q15843 1-76, chain 3 of 3): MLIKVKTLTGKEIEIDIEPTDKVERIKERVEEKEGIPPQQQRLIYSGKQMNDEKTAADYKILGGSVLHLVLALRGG

B1: UBE2R2 (enzyme, human, UniProt Q712K3 1-238, looked up)
chain: MAQQQMTSSQKALMLELKSLQEEPVEGFRITLVDESDLYNWEVAIFGPPNTLYEGGYFKAHIKFPIDYPYSPPTFRFLTKMWHPNIYENGDVCISILHPPVDDPQSGELPSERWNPTQNVRTILLSVISLLNEPNTFSPANVDASVMFRKWRDSKGKDKEYAEIIRKQVSATKAEAEKDGVKVPTTLAEYCIKTKVPSNDNSSDLLYDDLYDDDIDDEDEEEEDADCYDDDDSGNEES
notes: UBE2R2, human, wild type; In the trapped cryo-EM complexes the active site Cys93 is cross-linked to the BmDPA ligation mimic; in the di-ubiquitin synthesis assays it is thioesterified to 32P-labelled donor ubiquitin; also called WT (R2); UBE2R2 FL; source: E. coli Rosetta (DE3), purified (nickel-agarose or GST-sepharose, TEV, SEC); not shown: GST or 6xHis (either), N-terminal, cleaved
binding result [1]: binds
binding result (neddylated CUL1–RBX1): binds
